In patent US20040014721A1, “Method for using tethered bis(polyhydroxyphenyls) and O-alkyl derivatives thereof in treating inflammatory conditions of the central nervous system” (Oklahoma Medical Research Foundation, priority 2002, published 2004) one finds Kd data, which are given here for one substance.

This experiment deals with T1, human 5LOX (Homo sapiens, UniProt P09917).
T1 construct: purchased Cayman Chemical
T1 sequence (P09917 1-674): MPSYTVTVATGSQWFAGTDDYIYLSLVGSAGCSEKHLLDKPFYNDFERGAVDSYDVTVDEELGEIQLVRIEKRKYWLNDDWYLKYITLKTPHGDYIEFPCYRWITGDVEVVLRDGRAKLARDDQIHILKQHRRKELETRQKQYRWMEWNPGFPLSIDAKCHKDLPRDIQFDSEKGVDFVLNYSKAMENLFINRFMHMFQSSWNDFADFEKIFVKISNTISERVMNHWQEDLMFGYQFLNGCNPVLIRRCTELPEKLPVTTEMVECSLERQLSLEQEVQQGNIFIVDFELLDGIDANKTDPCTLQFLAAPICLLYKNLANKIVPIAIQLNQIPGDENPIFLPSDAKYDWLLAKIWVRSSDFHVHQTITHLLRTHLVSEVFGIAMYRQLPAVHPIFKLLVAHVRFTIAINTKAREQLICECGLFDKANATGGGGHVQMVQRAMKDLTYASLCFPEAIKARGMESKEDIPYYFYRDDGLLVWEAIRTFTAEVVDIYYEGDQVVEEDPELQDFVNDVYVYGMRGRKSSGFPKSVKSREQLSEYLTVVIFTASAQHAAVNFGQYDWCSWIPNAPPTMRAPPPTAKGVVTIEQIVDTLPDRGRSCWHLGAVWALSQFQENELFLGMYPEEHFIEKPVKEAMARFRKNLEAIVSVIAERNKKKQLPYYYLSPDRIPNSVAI
The experiment in a line: Microtiter plate binding of SOD1 to immobilized 5LOX. The following applies: Scatchard analysis, estimate. The protocol:
In order to circumvent these limitations of the BIAcore technique, a conceptually different strategy was employed to assess SOD1 binding to immobilized 5LOX. Standard 96 well polypropylene microtiter plates were coated with 5LOX by overnight incubation with the protein, which allows adsorption of the 5LOX through mostly hydrophobic interactions with the plate surface. As a control, half of each microplate was coated with BSA. The entire plate was then blocked with BSA, and subsequently incubated for 1 H with various concentrations of SOD1 dissolved in physiologic saline. Binding of SOD1 to the 5LOX-coated (or BSA-coated) microplate wells was quantified using alkaline phosphatase-conjugated anti-SOD1 polyclonal IgG, and p-nitrophenol as the chromophore. FIG. 15 illustrates preliminary binding data obtained from this experiment. SOD1 bound strongly to 5LOX-coated microplates but not to BSA-coated surfaces. […] Experiments may also be conducted to assess differences in 5LOX binding to wild-type versus mutant SOD1.

In the case of “SOD1: Cu, Zn-superoxide dismutase, binding partner of 5LOX”, the dissociation constant Kd was 1400 nM.

The term Kd denotes the equilibrium constant for the complex coming apart.
